Measurements from the DeepSol protein solubility set.

Assay: soluble on expression in E. coli; label from the status in PepcDB or PDB records

Sequence	soluble on expression in E. coli
MSQFGGGKPPGQWHRPAAPGGAPQLSGFSAVNFGGVPMVGMGVPMGMVNQAAFSSQGVLGMQGIMGAVPQQSLPQQQPNFQQQNSLQQGTNMQQNSGAKNQRTFVGVVTKMLDTYGFVDDDVFFQHSVIRGSHPRVGDKVMVEANYNPSMPFKWNAYRIQLLNAATQQEPARQAPQQQQMHQPQRGGQESQRWGAAPASGTSDRADRNGGARGNDSPLHRSSAARRHSPPPRRASPPRRTSSPKRDARPAREIRDSREPREVRRSPPPRRAASPRKASSPSAPAKNDRKRERSPSGSVAPSVRRESASPPRRRARIIPRYECRAQKPALLSPIVSGSVLRHRYSKLYLPSDYVDLSFDWVRSFQLDLSLDLSNPIQFHVFNKDVDFIGEEEIQDLDPEDADHRHQVKVLLLSHAGKSEVVKKAFCLMADGTTDDHQEPQSLLKNLHFLVGARGKETMGIGGSWSPSQDGADPNSATTMIRTAVRTTKSLTGIDLSSVSQWFSMVQIRYYRADKQRIDHVNYLLPDTQSLALDDAQWMLAETKIAEQLKAKLANVDALKIEEDEPPVVMMVEESESVVAAAAAAADVVPEQSIPDVKKEEELQAEEPKVLDNVKESIVLLWAEESDVVADVSMNSTTDADNSEAPAAENGQGPTNWSNLDPKSMKVAELRVELELRGLETKGIKTLLVQRLQTALDTEKAAEASVAARDVEMRDAAENAVKQEGGEENPAAFIAPSIEETKAKTEAEAKKEAEEAEKRKKKEEQLEKEKKEKREALEKHYQLPKDKKILVFPSKSFKSGKFDCKVLSLSSLLDYRHDDNKENQFEVSLFAEAFKEMIERNAAFTIYETLANCGDRDAEKKRRDEAREKPVEPKEPKEPAETTEKAAEGEEKKDEKEEKRDEKKDEKREEKREKVERIDLKSVVANRTVYEAFSLFDSNLCGYLTEKDIEEILYNGEFGISRGQIQKLAKKLSVRDKINYRHLTDVLTDMDGNVRHTPGGADDVVETDDLIRGFGYNLAKSMEPADSGAAVKSSEVSASSDGVVIINGSAVNVVQKMKLLKQVEKERDEAKSTVSEQLSLIEQLREAKAEIDKKKKDIDSHYHKSNKKLNETSAQLKSTQDENSALKQALQDCKRHADRIFSVVEKVMPPPPKKEEKSKKDEKEKTDKKDDKVSEKSAEKSTEEPSQEVPASAEQAAEPSTEAEPIVIDESEDKDAEVVEESKE	not soluble
MGSDKIHHHHHHMGSPYIQARLSQIGDLMSFGIIQLDYEEVLAKHYRRWIQPGDTVIDVGAHLGLHLSRFIELAGPTGQVIGFEPLPFAFDILSTQHACPTLTLNNVALAHEPGHAEFTFAQGSPGESGLRKRLYISPETVTPTLIPVKVDTLDMHTENLRSVDYIKIDIEGGEIGCLEGATRTIDKFRPLISTEYGYPSYSVYGLTKDSLFNFASSKNYVLFDIFLNRIDTRDEWHIVCDSICWDYFLVPAEKLDVFTERVARRAF	not soluble
MEKLVAYKRMPLWNKQTMPEAVQQKHNTKVGTWGKITVLKGALKFIELTEEGEVLAEHLFEAGADNPMAQPQAWHRVEAATDDVEWYLEFYCKPEDYFAKKYNTNPVHSEVLEAMQTVKQGKALDLGCGQGRNSLFLAQQDFDVTAVDQNGLALEILQSIVEQEDLDMPVGLYDINSASIEQEYDFIVSTVVLMFLQADRIPAIIQNMQEKTSVGGYNLIVCAMDTEDYPCSVNFPFTFKEGELADYYKDWELVKYNENPGHLHRRDENGNRIQLRFATLLAKKIK	not soluble
MDLLVVVPHPDDESFGAGGALLLAKEAGLKTGVLTLTRGEAGRTLGLCPPKELPQVRVEELKRAAAVLQVDYLEVLDYPNALPEGAQGERGPATGRGLADHPEAVEAIRTRLLRLRPRFVLTFPPDGINGHPDHVAASRYAREAAQGLAQVVYLVRPDGPWPVTHRLRLPERVLARKLQAIAQHKTQALSVLKFLEMFPERLWTETFHLPGASGLREGPWW	soluble
MPLVTRNIEPRHLCRQTLPSVRSELECVTNITLANVIRQLGSLSKYAEDIFGELFTQANTFASRVSSLAERVDRLQVKVTQLDPKEEEVSLQGINTRKAFRSSTIQDQKLFDRNSLPVPVLETYNTCDTPPPLNNLTPYRDDGKEALKFYTDPSYFFDLWKEKMLQDTKDIMKEKRKHRKEKKDNPNRGNVNPRKIKTRKEEWEKMKMGQEFVESKEKLGTSGYPPTLVYQNGSIGCVENVDASSYPPPPQSDSASSPSPSFSEDNLPPPPAEFSYPVDNQRGSGLAGPKRSSVVSPSHPPPAPPLGSPPGPKPGFAPPPAPPPPPPPMIGIPPPPPPVGFGSPGTPPPPSPPSFPPHPDFAAPPPPPPPPAADYPTLPPPPLSQPTGGAPPPPPPPPPPGPPPPPFTGADGQPAIPPPLSDTTKPKSSLPAVSDARSDLLSAIRQGFQLRRVEEQREQEKRDVVGNDVATILSRRIAVEYSDSEDDSSEFDEDDWSD	soluble
MPLSTSDNIAAVIVTHKRVELLRASLEVVAAQTHPVKWIIVVDNGCEDAVRDLLHSVAGDRGIYLPSHTNLGGAGGFAYGFLTALALGADAIWCADDDGRPEGPQVLATLIDAAVTHQLDEVSPVVCNMDDPNRLAFPLRRGLEWRRYRSELIDPNNPSDTLLPGIASLFNGALISAAAMERIGVPDLRLFIRGDEVEYHRRLVRSGLNFGTCLTTAYLHPDGSDEFKPILGGRMHTQYPASDAKRYFTYRNRGYLMNQPGMRRLLPQEYARFAWFFLIQRRDPRGFLEWFKLHQLGRSEKFERPLEHHHHHH	not soluble
MGSDKIHHHHHHMRRFFKNNLRNLSQNGETNSVRRCFALADVTVVINGRTLTVPDNLTVIEACEKAGIEIPALCHHPRLGESIGACRVCVVEVEGARNLQPACVTKVRDGMVIKTSSDRVKTARKFNLALLLSEHPNDCMTCEANGRCEFQDLIYKYDVEPIFGYGTKEGLVDRSSPAIVRDLSKCIKCQRCVRACSELQGMHIYSMVERGHRTYPGTPFDMPVYETDCIGCGQCAAFCPTGAIVENSAVKVVLEELEKKEKILVVQTAPSVRVAIGEEFGYAPGTISTGQMVAALRRLGFDYVFDTNFGADLTIMEEGSEFLERLEKGDLEDLPMFTSCCPGWVNLVEKVYPELRTRLSSAKSPQGMLSAMVKTYFAEKLGVKPEDIFHVSIMPCTAKKDEALRKQLMVNGVPAVDVVLTTRELGKLIRMKKIPFANLPEEEYDAPLGISTGAAALFGVTGGVMEAALRTAYELKTGKALPKIVFEEVRGLKGVREAEIDLDGKKIRIAVVHGTANVRNLVEKILRREVKYHFVEVMACPGGCIGGGGQPYSRDPEILRKRAEAIYTIDERMTLRKSHENPAIKKLYEEYLEHPLSHKAHELLHTYYEDRSRKKRLAVK	not soluble
MTLDDSSLQKFGFIKRETLGSINIDPLQTGGLLTGAAKQALVEWGDGYSVCDFCGGVLDLVKKPPIHDFVHKALPEFLGCDEARVTNGARESKFAVMHSMGKPGDWVVLDGLAHYSSYVAAERAGLNIEVVPHAGSPEYHLDPGRYGKAIEEVTKENGKPPVLALVTYPDGSYGNIPDAAKIASVCHEYDVPLLLNGAYSVGRMPVSAKEIGADFIVGSGHKSMAASGPVGVLGVSEEYAPVVFRKSVHNKVKEIELLGCTARGATVMTLMASFPEVVKRTRNWDQEVENARWFSSRLEGMGFIQRGQKPHSHDLMFFEAPGFYEISQKVKNGRYFLYRELKERNIHGIKSGLTKYFKLSTFGLGKEKLGTVADAFEDILKKYENI	not soluble
MKFALQINEGPYQHQASDSAYQFAKAALEKGHEIFRVFFYHDGVNNSTRLTTPPQDDRHIVNRWAELAEQYELDMVVCVAAAQRRGIVDEGEASRNGKDATNIHPKFRISGLGQLVEAAIQADRLVVFGD	soluble
MIQYYYTKKEWGVVMEKEELKILEELRRILSNKNEAIVILNNYFKGGVGKSKLSTMFAYLTDKLNLKVLMIDKDLQATLTKDLAKTFKVELPRVNFYEGLKNGNLASSIVHLTDNLDLIPGTFDLMLLPKLTRSWTFENESRLLATLLAPLKSDYDLIIIDTVPTPSVYTNNAIVASDYVMIPLQAEEESTNNIQNYISYLIDLQEQFNPGLDMIGFVPYLVDTDSATIKSNLEELYKQHKEDNLVFQNIIKRSNKVSTWSKNGITEHKGYDKKVLSMYKNVFFEMLERIIQLENEKE	soluble
MGSDKIHHHHHHMKTYTSNHIVFFSPTHTSAKIARAIGESIGMGRRIEIDLTTDENSSPIEIKDSITIIAVPVYAGRVAPIALQRLRRLKGNNAPAILVAVYGNRDYEDALVELRDETIQLGFTPLAAGAFIGEHSYSRPNMPIAEGRPDVTDLQIAEQFGKDCLTKLEKDETLSDFYLKGNIPYRFVGPSTPAAPVCTEECFACGECIEVCPTHAIALSDEGKIETEITKCIKCCACVKECPNGARVFDTPYTPMLHQKCAARREPELFI	not soluble
MSLKEIGPNSLLLEDSHSLSQLLKKNYRWYSPIFSPRNVPRFADVSSITESPETLKAIRDFLVERYRTMSPAPTHILGFDARGFLFGPMIAVELGIPFVLMRKADKNAGLLIRSEPYEKEYKEAAPEVMTIRHGSIGKNSRVVLIDDVLATGGTALSGLQLVEASGAEVVEMVSILTIPFLKAAERIHSTAGGRYKNVRFIGLLSEDVLTEANCGDLNDYTGPRVLSCSDLLVNQ	soluble
MGSDKIHHHHHHMANTSSDWAGAPQNASADGEFVRDTNYIDDRIVADVPAGSEPIAQEDGTFHWPVEAGRYRLVAARACPWAHRTVITRRLLGLENVISLGLTGPTHDVRSWTFDLDPNHLDPVLQIPRLQDAYFNRFPDYPRGITVPALVEESSKKVVTNDYPSITIDFNLEWKQFHREGAPNLYPAELREEMAPVMKRIFTEVNNGVYRTGFAGSQEAHNEAYKRLWVALDWLEDRLSTRRYLMGDHITEADIRLYPTLVRFDAVYHGHFKCGRNKITEMPNLWGYLRDLFQTPGFGDTTDFTEIKQHYYITHAEINPTRIVPVGPDLSGFATPHGREKLGGSPFAEGVTLPGPIPAGEEVKNPEPFQK	not soluble
MPNKISGSIAPSASSDAMKSADCAENIKEEVVSKHVHQAVPAELADLPSRQPPRSKTALYQVIQKFRDPLPLPPPPTSHPVLAYDRDLGSSDNFRSSDEFDLPESLNPTGWKNLHVSGSGSIASIGQITRLRPSKERPVVVLDAREESHAIVGGYPGTWRTPNNWGNAGKSRDEALADEQQRIQALKSQETVHIFHRKDVKSEARNPRGATLSKPLIFSEEELVRAAGAKYVRLTVTDHLSPRADDIDAFIAMEREMAHDERLHVHCGMGLGRTTIFIVMHDILRNAAMLSFDDIIERQRKFNPGRSLDNNKDVSDKGRSEFRNERSEFLPLFYEYAKQNPKGQPLLWSEWLDHNA	not soluble
MGSDKIHHHHHHMSVEQTYSWLRKAGSIDDLAHYIIPLFSGAEKKNWKGILGHLQHHGMFKNIKEGIQTVSKLKEKGFYGHIQKEEQYLKNKWQGPDVPIVTLPVDERNRRIRLEFGSKSGLAFQDKMFLFLSSDLDFGSVSALMTHEYHHVCRLGHLTKEEKDVTLLDTIIMEGLAEYAVYERFGRSQTAEWTTWYTPEQLQALYEKKIAPHRDIKRDNRLFPQLLFGKGYQPKMLGYAVGFNIVKKYLTASKASTADGLSIPAETFLDAML	not soluble
MQVLLLEDEPRLGQAVARALAAQGYGVRWARSLGEAREAFLELEPDLMVLDVRLPEDEDGGFRFAKEAREAGYKGPILFLTARDALEDRVQGLDLGGDDYLVKPFHLEELLARVRALLRRASEVKASRVRLGPLEVDLAGRGVYLAGRRVDLSLKEFALLETLLLHPGRVFAPEELAERVFGDPEKVGAVKVYVHYLRQKLFPEVVRTVPGGYRLGHEP	soluble
MSLSNLPADSFRVGVSEDRNRRCRRTMEDAHSFVYDFAGVKGQGYFAVFDGHAGKHAAEWCGQNFHEYLLDGLLIEPDTPVPDLMNKTFHLVDKRLSHLAHAAGTSSGCTAVTAFLRVEEMDDNDSFRKGFTNPGLQPRGLWEGKGEDELESQTSLQPSSRRSSMGGGTGGQMGGASAPGVNGRTGSLARRLSSKKIRDFVKGLTGGMEKNFDEAITEDEGVISAADGTRVEAIEPKSEKGVRRVLYTANVGDARAVLCRGGKAVRLTYDHKGSDAQEAKRITDAGGFVMNNRVNGVLAVTRSLGDASMKEFVVGAPYTTETTLDEQDEFLIVACDGLWDVCSDQEAVEIVHLVTDPQEASKRLLDHAMSNFSTDNLSVMVVRFNHEGHHHHHH	soluble
